Measurements from paper PMC7064771, “Repurposed Drugs That Block the Gonococcus-Complement Receptor 3 Interaction Can Prevent and Cure Gonococcal Infection of Primary Human Cervical Epithelial Cells” (mBio, 2020).

Key:
[1] = target: recombinant human CR3 I-domain (I-domain of CD11b) (human); experiment: SPR
[2] = target: recombinant human complement receptor 3 (integrin αMβ2) (human) (UniProt P11215); experiment: SPR

Sequence of N. gonorrhoeae MS11 wild-type pilin (PilE) modified with the Gal(α1-3)diNAcBac disaccharide (P02974 8-165 limits assumed): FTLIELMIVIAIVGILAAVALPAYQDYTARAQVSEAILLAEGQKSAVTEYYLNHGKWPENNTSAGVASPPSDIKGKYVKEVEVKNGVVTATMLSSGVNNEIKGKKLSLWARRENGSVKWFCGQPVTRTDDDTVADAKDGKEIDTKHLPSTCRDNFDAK

N. gonorrhoeae MS11 wild-type pilin (PilE) modified with the Gal(α1-3)diNAcBac disaccharide (from UniProt P02974 8-165) (natural protein)
Kd [1]: 349 nM | Kd [2]: 907 nM
